Source: patent US20110166081A1 (UNIVERSITY OF IOWA RESEARCH FOUNDATION, published 2011)

Biological target: T1, mouse integrin alpha7beta1 from digitonin-solubilized skeletal muscle (mouse, UniProt Q61738 34-1135; P09055 21-801, limits assumed)
T1 construct: also called integrin α7β1; alpha7beta1 integrin
Test: WGA lectin affinity chromatography and sucrose gradient fractionation of digitonin-solubilized muscle, immunoblot
Description: Characterization of skeletal muscle dystroglycan and integrin α7 complexes. Sucrose gradient fractionation of the DGC and the integrin α7 complex from wild-type (A, C), DG-deficient (B) and integrin α7-null (D) skeletal muscle solubilized with digitonin. Glycoprotein preparations enriched by WGA-chromatography were fractionated by sucrose gradient centrifugation. Equal volumes of fractions were loaded on an SDS-PAGE gel. The blot generated from this was probed with antibodies against: integrin α7 (α7), integrin β1(β1), α-DG (α-DG), α-sarcoglycan (α-SG), β-sarcoglycan (β-SG) and γ-sarcoglycan (γ-SG).
Lectin affinity chromatography and sucrose gradient fractionation. Total muscle homogenates in TBS (50 mM Tris-Cl pH 7.4, 150 mM NaCl) were solubilized with 1% digitonin. After centrifugation at 140,000×g for 37 min, solubilized proteins in the supernatant were mixed with wheat germ agglutinin (WGA)-agarose beads (Vector Laboratories) and rotated end-over-end at 4° C. for 2 hours. WGA-bound proteins were eluted with TBS containing 0.3 M N-acetyl-D-glucosamine and 0.1% digitonin. The eluant was applied to a 5-30% sucrose gradient and centrifuged at 215,000×g for 90 min. Fractions (1 ml) were collected from the top of the gradient and analyzed by SDS-PAGE.

T1 sequence (Q61738 other isoform, or with tags, fused parts or gaps limits assumed, chain 1 of 2): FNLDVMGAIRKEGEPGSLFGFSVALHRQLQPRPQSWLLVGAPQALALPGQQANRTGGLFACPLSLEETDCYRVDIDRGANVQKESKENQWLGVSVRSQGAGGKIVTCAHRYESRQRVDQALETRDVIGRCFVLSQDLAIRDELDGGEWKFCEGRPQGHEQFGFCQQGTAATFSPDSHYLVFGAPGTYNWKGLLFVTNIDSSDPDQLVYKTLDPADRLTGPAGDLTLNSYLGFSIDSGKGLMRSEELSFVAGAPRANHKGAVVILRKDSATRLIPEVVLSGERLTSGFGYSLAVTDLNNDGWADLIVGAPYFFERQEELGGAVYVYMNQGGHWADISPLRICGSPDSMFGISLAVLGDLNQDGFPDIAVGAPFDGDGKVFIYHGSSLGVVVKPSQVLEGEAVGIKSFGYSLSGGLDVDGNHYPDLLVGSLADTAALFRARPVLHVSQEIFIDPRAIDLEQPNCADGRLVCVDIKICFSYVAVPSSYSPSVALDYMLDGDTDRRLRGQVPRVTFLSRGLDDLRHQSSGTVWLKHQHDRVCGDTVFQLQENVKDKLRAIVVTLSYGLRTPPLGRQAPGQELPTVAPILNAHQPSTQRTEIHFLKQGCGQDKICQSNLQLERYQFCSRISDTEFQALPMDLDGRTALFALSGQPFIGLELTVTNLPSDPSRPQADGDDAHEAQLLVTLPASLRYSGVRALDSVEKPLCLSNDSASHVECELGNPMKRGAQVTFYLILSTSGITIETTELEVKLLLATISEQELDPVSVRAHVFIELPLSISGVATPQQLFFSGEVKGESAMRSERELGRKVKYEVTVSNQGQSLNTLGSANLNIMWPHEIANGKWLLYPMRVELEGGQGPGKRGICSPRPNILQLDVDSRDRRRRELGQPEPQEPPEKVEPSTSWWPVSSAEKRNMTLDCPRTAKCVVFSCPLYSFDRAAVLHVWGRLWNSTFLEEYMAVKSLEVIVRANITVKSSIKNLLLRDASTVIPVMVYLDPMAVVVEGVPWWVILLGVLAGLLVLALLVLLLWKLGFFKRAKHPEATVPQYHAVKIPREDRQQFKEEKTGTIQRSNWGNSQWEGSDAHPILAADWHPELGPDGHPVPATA
T1 sequence (P09055 other isoform, or with tags, fused parts or gaps limits assumed, chain 2 of 2): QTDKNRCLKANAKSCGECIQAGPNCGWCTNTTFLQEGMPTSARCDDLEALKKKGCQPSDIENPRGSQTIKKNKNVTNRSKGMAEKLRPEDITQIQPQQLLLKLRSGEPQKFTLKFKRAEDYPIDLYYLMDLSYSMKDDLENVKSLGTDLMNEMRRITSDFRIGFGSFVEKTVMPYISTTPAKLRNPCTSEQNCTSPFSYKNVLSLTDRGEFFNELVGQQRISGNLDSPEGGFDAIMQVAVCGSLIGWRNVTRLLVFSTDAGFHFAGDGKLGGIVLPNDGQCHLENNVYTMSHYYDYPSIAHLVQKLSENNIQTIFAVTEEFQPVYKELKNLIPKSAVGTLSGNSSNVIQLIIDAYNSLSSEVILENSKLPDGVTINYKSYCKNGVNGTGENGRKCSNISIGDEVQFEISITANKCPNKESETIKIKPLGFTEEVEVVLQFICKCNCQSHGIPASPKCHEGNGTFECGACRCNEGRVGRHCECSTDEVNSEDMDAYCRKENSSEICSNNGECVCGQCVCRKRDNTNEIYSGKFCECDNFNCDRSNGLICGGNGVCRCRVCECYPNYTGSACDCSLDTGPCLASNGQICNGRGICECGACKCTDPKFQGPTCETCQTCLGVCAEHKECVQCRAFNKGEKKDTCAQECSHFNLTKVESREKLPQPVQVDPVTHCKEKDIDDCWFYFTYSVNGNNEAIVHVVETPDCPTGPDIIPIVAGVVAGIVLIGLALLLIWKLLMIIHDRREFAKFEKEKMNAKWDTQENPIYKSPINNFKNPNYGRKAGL

B1: mouse dystroglycan from digitonin-solubilized skeletal muscle (receptor)
chain 1: HWPSEPSEAVRDWKNQLEASMHSVLSDFQEAVPTVVGIPDGTAVVGRSFRVSIPTDLIASSGEIIKVSAAGKEALPSWLHWDPHSHILEGLPLDTDKGVHYISVSAARLGANGSHVPQTSSVFSIEVYPEDHNEPQSVRAASSDPGEVVPSACAADEPVTVLTVILDADLTKMTPKQRIDLLNRMQSFSEVELHNMKLVPVVNNRLFDMSAFMAGPGNAKKVVENGALLSWKLGCSLNQNSVPDIRGVETPAREGAMSAQLGYPVVGWHIANKKPTLPKRLRRQIHATPTPVTAIGPPTTAIQEPPSRIVPTPTSPAIAPPTETMAPPVRDPVPGKPTVTIRTRGAIIQTPTLGPIQPTRVSEAGTTVPGQIRPTLTIPGYVEPTAVITPPTTTTKKPRVSTPKPATPSTDSSTTTTRRPTKKPRTPRPVPRVTTKAPITRLETASPPTRIRTTTSGVPRGGEPNQRPELKNHIDRVDAWVGTYFEVKIPSDTFYDNEDTTTDKLKLTLKLREQQLVGEKSWVQFNSNSQLMYGLPDSSHVGKHEYFMHATDKGGLSAVDAFEIHVHKRPQGDKAPARFKARLAGDPAPVVNDIHKKIALVKKLAFAFGDRNCSSITLQNITRG
chain 2: SIVVEWTNNTLPLEPCPKEQIIGLSRRIADENGKPRPAFSNALEPDFKALSIAVTGSGSCRHLQFIPVAPPSPGSSAAPATEVPDRDPEKSSEDDVYLHTVIPAVVVAAILLIAGIIAMICYRKKRKGKLTLEDQATFIKKGVPIIFADELDDSKPPPSSSMPLILQEEKAPLPPPEYPNQSMPETTPLNQDTVGEYTPLRDEDPNAPPYQPPPPFTAPMEGKGSRPKNMTPYRSPPPYVPP
notes: Native protein, WGA-enriched, within the dystrophin-glycoprotein complex; also called DG; DGC
binding result: no binding
